Target: T1, mouse IL-1α (mouse, UniProt P01582 115-270)
T1 sequence (looked up): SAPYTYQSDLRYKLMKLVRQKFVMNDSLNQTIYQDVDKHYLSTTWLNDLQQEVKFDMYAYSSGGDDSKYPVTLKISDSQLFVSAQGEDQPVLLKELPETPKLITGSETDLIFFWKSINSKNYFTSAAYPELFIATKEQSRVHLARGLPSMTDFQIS
Experiment: cell-based or functional assay

B1: mIL-1α/β DVD-Ig (bispecific antibody, mouse IgG2a, kappa)
heavy: EVQLQQSGPELVKPGTSVKMSCKTSGYTFTSYVMHWVKQKPGQGLEWIGYIIPYNDNTKYNEKFKGKATLTSDKSSSTAYMELSSLTSEDSAVYYCARRNEYYGSSFFDYWGQGTTLTVSSAKTTAPSVYPLAPQVILKESGPGILQPSQTLSLTCSFSGFSLSTYGTAVNWIRQPSGKGLEWLAQIGSDDRKLYNPFLKSRITLSEDTSNSQVFLKITSVDTEDSATYYCANGVMEYWGLGTSVTVSSAKTTAPSVYPLAPVCGDTTGSSVTLGCLVKGYFPEPVTLTWNSGSLSSGVHTFPAVLQSDLYTLSSSVTVTSSTWPSQSITCNVAHPASSTKVDKKIEPRGPTIKPCPPCKCPAPNLLGGPSVFIFPPKIKDVLMISLSPIVTCVVVDVSEDDPDVQISWFVNNVEVHTAQTQTHREDYNSTLRVVSALPIQHQDWMSGKEFKCKVNNKDLPAPIERTISKPKGSVRAPQVYVLPPPEEEMTKKQVTLTCMVTDFMPEDIYVEWTNNGKTELNYKNTEPVLDSDGSYFMYSKLRVEKKNWVERNSYSCSVVHEGLHNHHTTKSFSRTPGK
light: DIQMTQSPASLSASVGETVTITCRGSGILHNYLVWYQQKQGKSPQLLVYSAKILADGVPSRFSGSGSGTQYSLKINSLQPEDFGSYYCQHFWSTPFTFGSGTKLEIKRADAAPTVSIFPPSIVMTQTPKFLLVSAGDRVTITCKASQSVNHDVAWYQQMPGQSPKLLIYFASNRYTGVPDRFTGSGYGTDFTFTISTVQAEDLAVYFCQQDYSSPYTFGGGTKLEIKRADAAPTVSIFPPSSEQLTSGGASVVCFLNNFYPKDINVKWKIDGSERQNGVLNSWTDQDSKDSTYSMSSTLTLTKDEYERHNSYTCEATHKTSTSPIVKSFNRNEC
fold decrease of potency against the parental anti-mIL-1α mAb: 10 fold

Reference: patent US20090215992A1 (published 2009)
